This note sets out measurements from article PMC4335062, “Data-Driven Prediction and Design of bZIP Coiled-Coil Interactions” (PLoS Computational Biology, 2015).

The target in one data set is T1, XBP1/CREBZF heterodimer (Homo sapiens, UniProt P17861).
T1 construct: made in house
As to the kind of experiment: Competition FRET assay. The class given is binding. The note with it: 23°C; 10 nM XBP1 (fluorescein) with 50 nM CREBZF (TAMRA); unlabeled design. The protocol:
(§1) In the competition form of the assay, a FRET pair was made by mixing 10 nM of the donor-labeled peptide with a specified concentration of the acceptor-labeled peptide in 1 mM TCEP-HCl, and 20 μL of this solution was added to the wells after unlabeled design was titrated in 2-fold dilutions over the wells to a final concentration ranging from 0 to 2.5 μM. The amount of acceptor used varied for each curve, taking into account the Kd of the FRET complex in order to obtain a good lower baseline for fitting purposes. Samples were equilibrated for one hour before reading the plates; repeated reading of the plates over several hours gave no change in signal.
(§2) For the competition experiments, the IC50 was determined in MATLAB by fitting the binding data to the equation signal=a+b−a/(1+x/c)^H , where a and b are the lower and upper baselines, c is the IC50 value, x is the inhibitor concentration, and the Hill coefficient H was set to 1. Ki values were calculated as in Fu et al..

Another data set deals with T2, ATF4/FOS heterodimer (Homo sapiens, UniProt P18848).
T2 construct: made in house
As to the kind of experiment: Competition FRET assay. The note with it: 37°C; 10 nM ATF4 (fluorescein) with 200 nM FOS (TAMRA); unlabeled design. The format is binding. The protocol:
as §1, §2

For the next data set, the target named is T3, JUN/FOS heterodimer (Homo sapiens, UniProt P05412).
T3 construct: made in house
In words: Competition FRET assay. The format is binding. The protocol: The amount of acceptor used varied for each curve, taking into account the Kd of the FRET complex in order to obtain a good lower baseline for fitting purposes. Samples were equilibrated for one hour before reading the plates; repeated reading of the plates over several hours gave no change in signal. For the competition experiments, the IC50 was determined in MATLAB by fitting the binding data to the equation signal=[…] , where a and b are the lower and upper baselines, c is the IC50 value, x is the inhibitor concentration, and the Hill coefficient H was set to 1. Ki values were calculated as in Fu et al..

Data set [1] deals with the molecule itself. As to the kind of experiment: FRET or BRET; direct-binding FRET of the designed peptide with itself (row 'homodimer'; dimer to monomers); acceptor-labelled design titrated into donor-labelled design by note 1 of the tables; 37 °C. Background: In BRET a luciferase serves as donor, and the signal depends on an acceptor being close.
Another data set deals with MAFG (Homo sapiens, UniProt O15525). In words: FRET or BRET; direct-binding FRET in 384-well plates; rhodamine-labelled design (acceptor) titrated 0 to 1 uM into 10 nM fluorescein-labelled bZIP (donor); 150 mM KCl, 50 mM potassium phosphate pH 7.4, 0.1% Tween-20, 0.1% BSA; 23 °C.
Sequence of MAFG (O15525 whole entry): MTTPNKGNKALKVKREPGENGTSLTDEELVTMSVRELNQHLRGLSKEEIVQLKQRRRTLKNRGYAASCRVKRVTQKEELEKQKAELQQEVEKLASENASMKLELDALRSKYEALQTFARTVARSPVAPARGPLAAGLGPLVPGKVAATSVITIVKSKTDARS
A further data set concerns the target FOS (Homo sapiens, UniProt P01100). The data set is described as above.
A further data set concerns the target MAFB (Homo sapiens, UniProt Q9Y5Q3). The description is as above.
Data set [2] concerns the molecule itself. In words: FRET or BRET; direct-binding FRET of the designed peptide with itself (row 'homodimer'; dimer to monomers); acceptor-labelled design titrated into donor-labelled design by note 1 of the tables; 4 °C.
Another data set deals with CREB1 (human) (UniProt P16220). As to the kind of experiment: FRET or BRET; direct-binding FRET in 384-well plates; rhodamine-labelled design (acceptor) titrated 0 to 1 uM into 10 nM fluorescein-labelled bZIP (donor); 150 mM KCl, 50 mM potassium phosphate pH 7.4, 0.1% Tween-20, 0.1% BSA; 37 °C.
Sequence of CREB1 (human) (P16220 whole entry): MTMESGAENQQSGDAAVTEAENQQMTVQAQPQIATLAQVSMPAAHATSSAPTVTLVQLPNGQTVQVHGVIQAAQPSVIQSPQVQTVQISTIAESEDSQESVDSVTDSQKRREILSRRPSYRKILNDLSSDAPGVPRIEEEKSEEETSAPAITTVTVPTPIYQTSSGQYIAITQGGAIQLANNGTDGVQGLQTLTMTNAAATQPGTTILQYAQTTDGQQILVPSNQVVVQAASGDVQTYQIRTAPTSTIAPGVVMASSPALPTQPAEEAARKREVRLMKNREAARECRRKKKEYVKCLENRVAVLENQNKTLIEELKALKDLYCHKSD
The target of another data set is CREB3L1 (human) (UniProt Q96BA8). Described as above.
Sequence of CREB3L1 (human) (Q96BA8 whole entry): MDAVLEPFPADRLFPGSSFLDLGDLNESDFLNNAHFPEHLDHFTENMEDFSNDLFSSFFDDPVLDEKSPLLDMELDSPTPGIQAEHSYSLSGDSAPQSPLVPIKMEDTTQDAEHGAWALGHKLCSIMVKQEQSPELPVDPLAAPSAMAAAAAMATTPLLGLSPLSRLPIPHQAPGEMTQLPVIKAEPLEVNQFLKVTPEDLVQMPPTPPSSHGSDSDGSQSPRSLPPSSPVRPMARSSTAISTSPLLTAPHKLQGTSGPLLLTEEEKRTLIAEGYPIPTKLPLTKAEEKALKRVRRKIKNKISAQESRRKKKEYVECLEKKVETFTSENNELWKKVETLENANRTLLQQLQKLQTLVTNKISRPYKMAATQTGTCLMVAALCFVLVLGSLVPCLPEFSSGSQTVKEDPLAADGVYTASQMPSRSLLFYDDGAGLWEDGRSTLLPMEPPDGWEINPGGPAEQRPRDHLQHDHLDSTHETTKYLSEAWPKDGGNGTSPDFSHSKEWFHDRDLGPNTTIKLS
Data set [3] has as its target ATF5-d1 labeled at the C-terminus. In words: FRET or BRET; direct-binding FRET of the designed peptide with itself (row 'homodimer'; dimer to monomers); acceptor-labelled design titrated into donor-labelled design by note 1 of the tables; 4 °C.
For data set [4] the target is unchanged. As to the kind of experiment: FRET or BRET; direct-binding FRET of the designed peptide with itself (row 'homodimer'; dimer to monomers); acceptor-labelled design titrated into donor-labelled design by note 1 of the tables; 23 °C.
The target of another data set is NFE2L1 (Homo sapiens, UniProt Q14494). In words: FRET or BRET; direct-binding FRET in 384-well plates; rhodamine-labelled design (acceptor) titrated 0 to 1 uM into 10 nM fluorescein-labelled bZIP (donor); 150 mM KCl, 50 mM potassium phosphate pH 7.4, 0.1% Tween-20, 0.1% BSA; 23 °C.
Sequence of NFE2L1 (Q14494 whole entry): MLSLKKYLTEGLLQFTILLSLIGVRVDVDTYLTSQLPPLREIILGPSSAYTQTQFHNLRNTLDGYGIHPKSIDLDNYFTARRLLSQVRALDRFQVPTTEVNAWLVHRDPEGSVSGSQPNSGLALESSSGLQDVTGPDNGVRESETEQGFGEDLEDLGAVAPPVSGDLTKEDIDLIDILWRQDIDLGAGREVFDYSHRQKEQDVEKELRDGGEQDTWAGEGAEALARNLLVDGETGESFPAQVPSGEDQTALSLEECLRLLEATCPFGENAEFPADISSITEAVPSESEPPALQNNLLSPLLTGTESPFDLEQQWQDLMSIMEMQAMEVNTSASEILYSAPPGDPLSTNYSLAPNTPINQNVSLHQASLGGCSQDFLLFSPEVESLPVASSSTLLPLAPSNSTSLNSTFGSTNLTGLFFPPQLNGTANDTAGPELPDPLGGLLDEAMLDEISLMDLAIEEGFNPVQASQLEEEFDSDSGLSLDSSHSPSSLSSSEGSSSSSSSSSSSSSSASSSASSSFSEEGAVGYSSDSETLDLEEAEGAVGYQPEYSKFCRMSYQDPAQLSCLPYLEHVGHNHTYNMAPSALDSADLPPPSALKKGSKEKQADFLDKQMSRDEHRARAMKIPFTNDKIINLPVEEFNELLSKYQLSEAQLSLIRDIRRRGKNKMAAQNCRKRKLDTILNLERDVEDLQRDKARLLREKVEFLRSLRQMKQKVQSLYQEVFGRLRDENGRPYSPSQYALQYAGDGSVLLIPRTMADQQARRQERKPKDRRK

Where “and” joins values, the source holds several entries; their conditions need not be identical. Equal entries are not always repeated. Where no end group is shown, it is not given here. Bounds are passed on as bounds.

Sequence of FOS (P01100 whole entry): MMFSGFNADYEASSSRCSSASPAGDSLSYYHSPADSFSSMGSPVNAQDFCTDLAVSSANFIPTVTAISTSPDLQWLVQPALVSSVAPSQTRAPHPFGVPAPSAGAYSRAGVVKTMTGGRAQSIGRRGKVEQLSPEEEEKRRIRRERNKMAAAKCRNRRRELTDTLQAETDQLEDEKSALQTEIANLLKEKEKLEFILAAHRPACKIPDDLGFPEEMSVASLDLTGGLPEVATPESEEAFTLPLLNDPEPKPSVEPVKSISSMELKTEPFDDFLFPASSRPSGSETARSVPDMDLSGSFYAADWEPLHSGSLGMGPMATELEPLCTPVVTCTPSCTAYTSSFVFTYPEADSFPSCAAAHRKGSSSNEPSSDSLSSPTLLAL
Sequence of MAFB (Q9Y5Q3 whole entry): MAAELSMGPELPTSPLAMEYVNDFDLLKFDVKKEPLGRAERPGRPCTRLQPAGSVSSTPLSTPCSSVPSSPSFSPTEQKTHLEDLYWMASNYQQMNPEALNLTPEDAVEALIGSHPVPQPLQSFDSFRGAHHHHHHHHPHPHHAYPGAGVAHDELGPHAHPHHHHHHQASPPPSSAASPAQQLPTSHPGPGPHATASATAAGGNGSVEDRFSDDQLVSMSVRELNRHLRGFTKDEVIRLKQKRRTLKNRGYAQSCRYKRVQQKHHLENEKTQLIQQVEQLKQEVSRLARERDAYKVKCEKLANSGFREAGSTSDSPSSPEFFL

As a reminder, the IC50 is the concentration that gives 50% inhibition. Low values mean greater potency in that assay, high ones weaker potency in that assay. On XBP1/CREBZF heterodimer, “EREAQLENRVAHLKEKNQELKAQNLHLKEALSEAQNRNQELKNDA [XBP1-d1]” came in with an IC50 of 136 nM.

For the molecule “NQIKTLRTRLSKLRKDNLQLEKDIANLERKAKDLRAEKEQLEYEL [ATF4-d1]”, at ATF4/FOS heterodimer, the IC50 was determined as 279 nM.

On JUN/FOS heterodimer, “SIAATLEKEEANLEKMNKKLAAEIESLLKEKDKLESVLNYHE [JUN-d1]” showed an IC50 of 245 nM.

B1: ATF4-d1 labeled at the C-terminus (designed binder)
chain: GESKEYKKGSGSNQIKTLRTRLSKLRKDNLQLEKDIANLERKAKDLRAEKEQLEYELGC
modifications: also: C59 label by assay: Rhodamine Red C2-maleimide or fluorescein-5-maleimide
notes: solubility linker after the His6 tag; added to the C-terminus for labeling; one molecule for the rhodamine- and the fluorescein-labelled form; the assay tells which label stood there; also called ATF4-d1-Rhodamine; ATF4-d1-FITC; source: E. coli RP3098, purified (Ni-NTA under denaturing conditions, reverse-phase HPLC)
The Kd is the concentration at which binding is half-saturated. Take B1: the Kd in [1] was 1820 nM and 1110 nM and 2520 nM; with MAFG, 1000 nM; in the data set with FOS, 1000 nM; in the data set with MAFB it was > 5000 nM; in [2], 1 nM.

B2: ATF5-d1 labeled at the C-terminus (designed binder)
chain: GESKEYKKGSGSKRIAYLRQRIAELRNENHVLESRIQRMEKEKDALQQDRDHLEYELGC(Rhodamine Red C2‑maleimide)
modifications: not fully specified
In the case of B2, the Kd with CREB1 (human) is 1000 nM; with CREB3L1 (human), 1000 nM; in [3], 1000 nM; in [4], 1000 nM; with NFE2L1 it was > 5000 nM.
